The target of test [1] is recombinant homotrimeric HA A/Japan/305/57 H2N2 (Influenza A virus A/Japan/305/1957(H2N2)). The experiment in a line: protein microarray, purified IgG, trimeric HA.
Test [2] has as its target recombinant homotrimeric HA A/swine/Ontario/01911-2/99 H4N6 (Influenza A virus …). The experiment in a line: protein microarray, purified IgG, trimeric HA.
Test [3] concerns the target recombinant homotrimeric HA A/California/4/09 H1N1 (Influenza A virus …). Kind of test: protein microarray, purified IgG, trimeric HA.
Test [4] has as its target recombinant homotrimeric HA A/Hong Kong/2108/03 H9N2 (Influenza A virus A/HK/2108/2003(H9N2)). The experiment in a line: protein microarray, purified IgG, trimeric HA.
Test [5] has as its target recombinant homotrimeric HA A/Vietnam/1203/04 H5N1 (Influenza A virus …). The experiment in a line: protein microarray, purified IgG, trimeric HA.
Test [6] deals with recombinant homotrimeric HA A/Wisconsin/67/05 H3N2 (Influenza A virus …). Kind of test: protein microarray, purified IgG, trimeric HA.
In test [7] the target is recombinant homotrimeric HA A/Solomon Islands/3/06 H1N1 (Influenza A virus A/Solomon …). Kind of test: protein microarray, purified IgG, trimeric HA.
Test [8] concerns the target recombinant homotrimeric HA A/Anhui/1/05 H5N1 (Influenza A virus A/Anhui/1/2005(H5N1)). Kind of test: protein microarray, purified IgG, trimeric HA.
Test [9] concerns the target recombinant homotrimeric HA A/chicken/Vietnam/NCVD-016/08 H5N1 (Influenza A virus …). Kind of test: protein microarray, purified IgG, trimeric HA.
In test [10] the target is recombinant homotrimeric HA A/Hong Kong/156/97 H5N1 (Influenza A virus A/Hong Kong/156/97 …). Kind of test: protein microarray, purified IgG, trimeric HA.
For test [11], the target named is recombinant homotrimeric HA A/Hong Kong/1073/99 H9N2 (Influenza A virus A/Hong Kong/1073/99 …). The experiment in a line: protein microarray, purified IgG, trimeric HA.
In test [12] the target is recombinant homotrimeric HA A/northern shoveler/California/HKWF115/07 H6N4 (Influenza A virus A/northern …). The experiment in a line: protein microarray, purified IgG, trimeric HA.
Test [13] deals with recombinant homotrimeric HA A/Netherlands/219/03 H7N7 (Influenza A virus …). Kind of test: protein microarray, purified IgG, trimeric HA.
Test [14] has as its target recombinant homotrimeric HA A/South Carolina/1/18 H1N1 (Influenza A virus A/South Carolina/1/18 …). Kind of test: protein microarray, purified IgG, trimeric HA.
Test [15] concerns the target recombinant homotrimeric HA A/Indonesia/5/05 H5N1 (Influenza A virus …). Kind of test: protein microarray, purified IgG, trimeric HA.
Test [16] has as its target recombinant homotrimeric HA A/Egypt/3300-NAMRU3/08 H5N1 (Influenza A virus …). Kind of test: protein microarray, purified IgG, trimeric HA.
Test [17] addresses recombinant homotrimeric HA A/duck/Yangzhou/02/05 H8N4 (Influenza A virus …). The experiment in a line: protein microarray, purified IgG, trimeric HA.
Test [18] has as its target recombinant soluble homotrimeric HA of A/Solomon Islands/3/06 (H1N1) (Influenza A virus A/Solomon …). Kind of test: trimeric HA microarray, transfection supernatant set 3.
Test [19] deals with recombinant soluble homotrimeric HA of A/chicken/Vietnam/NCVD-016/08 (H5N1) (Influenza A virus …). Described as above.
Test [20] concerns the target recombinant soluble homotrimeric HA of A/Egypt/3300-NAMRU3/08 (H5N1) (Influenza A virus …). Described as above.
Test [21] concerns the target recombinant soluble homotrimeric HA of A/Hong Kong/2108/03 (H9N2) (Influenza A virus A/HK/2108/2003(H9N2)). The test is described as above.
Test [22] addresses recombinant soluble homotrimeric HA of A/northern shoveler/California/HKWF115/07 (H6) (Influenza A virus A/northern …). Described as above.
For test [23], the target named is recombinant soluble homotrimeric HA of A/Indonesia/5/05 (H5N1) (Influenza A virus …). Described as above.
The target in test [24] is recombinant soluble homotrimeric HA of A/California/4/09 (H1N1) (Influenza A virus …). The description is as above.
Test [25] addresses recombinant soluble homotrimeric HA of A/Japan/305/57 (H2N2) (Influenza A virus A/Japan/305/1957(H2N2)). The description is as above.
For test [26], the target named is recombinant soluble homotrimeric HA of A/Hong Kong/1073/99 (H9N2) (Influenza A virus A/Hong Kong/1073/99 …). The description is as above.
Test [27] addresses recombinant soluble homotrimeric HA of A/duck/Yangzhou/02/05 (H8N4) (Influenza A virus …). The description is as above.
In test [28] the target is recombinant soluble homotrimeric HA of A/Anhui/1/05 (H5N1) (Influenza A virus A/Anhui/1/2005(H5N1)). The test is described as above.
Test [29] addresses recombinant soluble homotrimeric HA of A/Netherlands/219/03 (H7N7) (Influenza A virus …). Described as above.
In test [30] the target is recombinant soluble homotrimeric HA of A/South Carolina/1/18 (H1N1) (Influenza A virus A/South Carolina/1/18 …). Described as above.
For test [31], the target named is recombinant soluble homotrimeric HA of A/Wisconsin/67/05 (H3N2) (Influenza A virus …). Described as above.
The target in test [32] is recombinant soluble homotrimeric HA of A/Vietnam/1203/04 (H5N1) (Influenza A virus …). Described as above.
For test [33] the target is unchanged. The experiment in a line: HA microarray, BCC supernatant.
Test [34] concerns the target recombinant soluble homotrimeric HA of A/Wisconsin/67/05 (H3N2) (Influenza A virus …). The experiment in a line: HA microarray, BCC supernatant.
Test [35] deals with recombinant soluble homotrimeric HA of A/Japan/305/57 (H2N2) (Influenza A virus A/Japan/305/1957(H2N2)). Kind of test: HA microarray, BCC supernatant.
The target of test [36] is recombinant soluble homotrimeric HA of A/Solomon Islands/3/06 (H1N1) (Influenza A virus A/Solomon …). Kind of test: HA microarray, BCC supernatant.
The target in test [37] is recombinant soluble homotrimeric HA of A/chicken/Vietnam/NCVD-016/08 (H5N1) (Influenza A virus …). The experiment in a line: HA microarray, BCC supernatant.
Test [38] concerns the target recombinant soluble homotrimeric HA of A/duck/Yangzhou/02/05 (H8N4) (Influenza A virus …). The experiment in a line: HA microarray, BCC supernatant.
Test [39] has as its target recombinant soluble homotrimeric HA of A/Hong Kong/2108/03 (H9N2) (Influenza A virus A/HK/2108/2003(H9N2)). The experiment in a line: HA microarray, BCC supernatant.
Test [40] addresses recombinant soluble homotrimeric HA of A/swine/Ontario/01911-2/99 (H4N6) (Influenza A virus …). The experiment in a line: HA microarray, BCC supernatant.
For test [41], the target named is recombinant soluble homotrimeric HA of A/Indonesia/5/05 (H5N1) (Influenza A virus …). Kind of test: HA microarray, BCC supernatant.
Test [42] concerns the target recombinant soluble homotrimeric HA of A/Egypt/3300-NAMRU3/08 (H5N1) (Influenza A virus …). Kind of test: HA microarray, BCC supernatant.
The target in test [43] is recombinant soluble homotrimeric HA of A/Netherlands/219/03 (H7N7) (Influenza A virus …). The experiment in a line: HA microarray, BCC supernatant.
In test [44] the target is recombinant soluble homotrimeric HA of A/Anhui/1/05 (H5N1) (Influenza A virus A/Anhui/1/2005(H5N1)). The experiment in a line: HA microarray, BCC supernatant.
Test [45] deals with recombinant soluble homotrimeric HA of A/northern shoveler/California/HKWF115/07 (H6) (Influenza A virus A/northern …). The experiment in a line: HA microarray, BCC supernatant.
Test [46] has as its target recombinant soluble homotrimeric HA of A/California/4/09 (H1N1) (Influenza A virus …). The experiment in a line: HA microarray, BCC supernatant.

B1: TCN-556 (5089_K12) (antibody, V domains shown)
VH: QVQLVQSGAEVKKPGASVKVSCKASGYTFIGYDMHWVRQAPGQGLEWMGWINAKRGGTNYAQKFQGRVTMTRDTSISTAYMELNSLRSDDTAVYYCARGVGSRTTIFGVLNPEFDYWGQGTLVTVSS
VL: QSALTQPPSASGSPGQSVTISCTGSSSDVGGYDYVSWYQQHPGKAPKLLIYEVTKRPSGVPDRFSGSKSGNTASLTVSGLQAEDEADYYCSSYAGNYNHVFGPGTKVTVL
Take B1: the “Trimeric HA Binding: RLU” value was 25800 RLU in test [1]; 24100 RLU in [2]; 25800 RLU in [3]; 25600 RLU in test [4]; 21500 RLU in test [5]; 2360 RLU in test [6]. Moreover, the “Trimeric HA Binding: RLU” value in test [7] amounted to 24300 RLU; in [8] it was 26900 RLU; in test [9], 22400 RLU; in test [10], 18600 RLU; in test [11], 995 RLU; in [12], 25000 RLU. Moreover, the “Trimeric HA Binding: RLU” value is 21000 RLU in test [13]; 21000 RLU in test [14]; 23000 RLU in test [15]; 24800 RLU in test [16]; 18300 RLU in [17].

B2: TCN-533 (5256_A17a) (antibody, V domains shown)
VH: QVQLVQSGADVKKPGSSVTVSCKASGGSFSNYGINWVRQAPGQGLEWMGGIIPLINAPNYAPKFQGRVTITADMFSNIVSLQLTSLRTDDTAVYYCARRKMTTAIDYWGQGTLVTVSS
VL: QPVLTQPPSASASLGASVTLTCTLSSAYSNYKVDWYQQRPGKGPRFVMRVGTGGIVGSKGDGIPDRFSVLGSGLNRYLTIKNIQEEDESDYHCGADHGSGSNFVSPYVFGGGTKLTVL
Take B2: the “Trimeric HA Binding: RLU” value was found to be 15500 RLU in [18]; 24600 RLU in test [19]; 18600 RLU in test [20]; 33 RLU in test [21]; 7810 RLU in test [22]; 28300 RLU in [23]. Moreover, the “Trimeric HA Binding: RLU” value turned out to be 6880 RLU in test [24]; 18600 RLU in [25]; 23800 RLU in test [26]; 711 RLU in [27]; 301 RLU in test [28]; 209 RLU in test [29]. Further, the “Trimeric HA Binding: RLU” value in test [30] turned out to be 16400 RLU; in test [31] it was 16100 RLU; in [32] it was 11700 RLU.

B3: TCN-533 (5256_A17a) (antibody, V domains shown)
VH: B2 VH
VL: B2 VL
Consider B3, for which the “Trimeric HA Binding: RLU” value in test [33] was found to be 5680 RLU; in test [34], 13800 RLU; in test [35], 10800 RLU; in test [36], 39200 RLU; in test [37], 47700 RLU; in test [38] it was 24700 RLU. Further, the “Trimeric HA Binding: RLU” value in test [39] is 172 RLU; in test [40], 1580 RLU; in test [41] it was 44100 RLU; in test [42], 34300 RLU; in [43], 2470 RLU; in [44] it was 8060 RLU. In addition, the entries for the “Trimeric HA Binding: RLU” value in test [45] and in [46] were 41400 RLU and 29300 RLU, respectively.

B4: TCN-533 (5256_A17a) (antibody, V domains shown)
VH: B2 VH
VL: B2 VL
Regarding B4, the “Trimeric HA Binding: RLU” value in test [1] is 23400 RLU; in [3], 24000 RLU; in [4] it was 164 RLU; in test [5] it was 26900 RLU; in [6], 308 RLU; in test [7] it was 12000 RLU. For the same molecule, the “Trimeric HA Binding: RLU” value in test [8] was 5650 RLU; in test [9] it was 5470 RLU; in [10] it was 13200 RLU; in [11], 5810 RLU; in [12], 20400 RLU; in [13], 712 RLU. The results for the “Trimeric HA Binding: RLU” value in test [14], in test [15] and in test [16] were 8670 RLU, 23100 RLU and 20600 RLU, respectively.

Values taken from US20150086555A1 (THERACLONE SCIENCES, published 2015).
